Test results from patent US20230067225A1.
Changes are numbered by the printed parent chain. Names may count otherwise.

B1: uTEV3, full-length (HIS6-MBP-TEV I138T S153N T180A, S219V) (protein)
chain: GESLFKGPRDYNPISSTICHLTNESDGHTTSLYGIGFGPFIITNKHLFRRNNGTLLVQSLHGVFKVKNTTTLQQHLIDGRDMIIIRMPKDFPPFPQKLKFREPQREERICLVTTNFQTKSMSSMVSDTSCTFPSSDGTFWKHWIQTKDGQCGNPLVSTRDGFIVGIHSASNFTNTNNYFASVPKNFMELLTNQEAQQWVSGWRLNADSVLWGGHKVFMVKPEEPFQPVKEATQLMNELVYSQ
B2: wild-type TEVΔ (TEVΔ-S219V), purified with His tag from bacteria (protein)
chain: HHHHHHGESLFKGPRDYNPISSTICHLTNESDGHTTSLYGIGFGPFIITNKHLFRRNNGTLLVQSLHGVFKVKNTTTLQQHLIDGRDMIIIRMPKDFPPFPQKLKFREPQREERICLVTTNFQTKSMSSMVSDTSCTFPSSDGIFWKHWIQTKDGQCGSPLVSTRDGFIVGIHSASNFTNTNNYFTSVPKNFMELLTNQEAQQWVSGWRLNADSVLWGGHKVFMV
B3: uTEV2Δ (TEVΔ/S219V + T30A + S153N), purified with His tag from bacteria (protein)
chain: B2 chain with T36A, S159N
B4: uTEV1Δ (TEVΔ/S219V + S153N), purified with His tag from bacteria (protein)
chain: B2 chain with S159N

How the values were obtained:
[1] = molecular target: CD4-HA-CIBN-2xMKII-NNES-heLOV-GAL4 (FLARE transcription factor component) (Arabidopsis thaliana); experiment: cell-based or functional assay
[2] = molecular target: B2Ar-heLOV-TEVcs-Gal4-V5 (SPARK transcription factor component) (UniProt P07550); experiment: cell-based or functional assay
[3] = molecular target: MBP-TEVcs(ENLYFQ/S)-eGFP [MBP: P0AEX9]
[4] = molecular target: MBP-TEVcs(ENLYFQ/S)-eGFP [MBP: P0AEX9]; experiment: Michaelis-Menten fit of the in-gel fluorescence cleavage assay, purified protease with the substrate titrated; the filing defines affinity as Km
[5] = molecular target: MBP-TEVcs(ENLYFQ/M)-eGFP [MBP: P0AEX9]

Molecule | turnover rate (kapp) [5] [s⁻¹] | turnover rate (kapp), fold against wild-type TEVΔ [5] | also measured
eGFP-CaM-TEVΔ/S219V + S153N (FLARE protease component with uTEV1Δ) (enzyme) |  |  | FLARE mCherry reporter, high/low Ca+2 signal ratio [1]: 12; FLARE mCherry reporter, signal-to-background ratio [1]: 12.2
HA-arrestin-TEVΔ/S153N (SPARK protease component with uTEV1Δ) (enzyme) |  |  | SPARK mCherry reporter, +/-agonist signal ratio [2]: 20.7
B1 |  |  | kcat/Km, fold against wild-type TEV [3]: a 2.8-fold increase in kcat/Km; fold improvement of Km against wild-type TEV [4]: Km improved by 3-fold
B2 | 0.01 |  | 
B3 | 0.062 | 5.4- and 6.2-fold higher than wild-type | 
B4 | 0.054 | 5.4- and 6.2-fold higher than wild-type | 
